Data on 41 sequences can be found in the nanobody polyreactivity screen of Harvey et al. (2022).

This data set is described as follows: yeast display, Sf9 membrane polyspecificity reagent, FACS + sequencing; frameworks hold sequencing errors. In short, it runs like this: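 Nanobodies came from a synthetic yeast display library in Saccharomyces cerevisiae BJ5465, induced with galactose for 36–48 hours and stained for 1 hour at 4 °C with 10% biotinylated, detergent-solubilized Sf9 membrane reagent. Cells were enriched on streptavidin microbeads and then FACS-sorted, with low and high (top ~1%) gates set on anti-HA fluorescence for expression and streptavidin fluorescence for reagent binding. Each polyreactivity label reflects the gate a clone came from. Genes were amplified by colony PCR, sequenced by MiSeq 2 × 250 and filtered by CDR length.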
Turning to “QVQLVESGGGLVQAGGSLRLSCAASGFTFQENAMGWYRQAPGKERELVAAISYGGGSTYYADSVKGRFTISRDNAKNTVYLQMNSLKPEDTAVYYCAADGGSAYAWYFAELYGYWGQGTQVTVSS”, the “polyreactivity (PSR sort gate)” value is “low polyreactivity”.
For “QVQLVESGGGLVQAGGSLRLSCAASGFTFQLYAMGWYRQAPGKERELVAAISSSGTSTYYADSVKGRFTISRDNAKNTVFLQMNSLKPEDTAVYYCAARGPYTYRRYGYWGQGTQVTVSS”, the “polyreactivity (PSR sort gate)” value is given as “high polyreactivity”.
Turning to “QVQLVESGGGLVQAGGSLRLSCAASGFTFQNYAMGWYRQAPGKERELVAAISWGGGSTYYADSVKGRFTISRDNAQNTVYLQMNSLKPEDTAVYYCNAYEYLSAGYDYWGQGTQVTVSS”, the “polyreactivity (PSR sort gate)” value is “low polyreactivity”.
For “QVQLVESGGGLVQAGGSLRLSCAASGFTFQRYAKGWYRQAPGKERDLVAAITRNGGSTYYADSVKGRFTISRDNAKNTVYLQMNSLKPDDTAVYYCNAEWFQFYWYPHYKVTRYEYWGQVTQVTVSS”, the “polyreactivity (PSR sort gate)” value is on record as “high polyreactivity”.
The value for “QVQLVESGGGLVQAGGSLRLSCAASGFTFQYYAMGWYRQAPGKERELVAAISWSGASTYYADSVKGRFTISRDNAKNTVYLQMNSLKPEDTAVYYCAADYWGHEYDYWGQGTQVTVSS” was “high polyreactivity”.
Take “QVQLVESGGGLVQAGGSLRLSCAASGFTFQYYAMGWYRQAPGKERELVAAISWSGTSPYYADSVKGRFTISRDNAKNTVYLQMISLKPADTAVYDCAASVWYYYSDYDYWGQGTQVTVSS”: the “polyreactivity (PSR sort gate)” value is reported as “high polyreactivity”.
Take “QVQLVESGGGLVQAGGSLRLSCAASGFTFQYYAMGWYRQAPVKERELVAAINWSGGRTYYADSVKGRFTISRDNAKNTVYLQMNSLKPEDTAVYYCAAPRSFSGGYGYVSYDYWGQGTQVTVSS”: the “polyreactivity (PSR sort gate)” value is recorded as “high polyreactivity”.
The same measure for “QVQLVESGGGLVQAGGSLRLSCAASGFTFQYYDMGWYRQAPGKERELVAAISWSGGSTYYADSVKGRFTISRDNAKNTVYFQMNSLKPEDTAVYYCAAGYTRSRHYTPYDYWGQGTQVTVSS”: “high polyreactivity”; for “QVQLVESGGGLVQAGGSLRLSCAASGFTFQYYTMGWYRQAPGKERELLAAITYSGSTYYADSVKGRFTISRDNAKNTVYLQMNSLKPEDTAVYYCNVYRGRYLYAWRPLGYWGQGTQVTVSS”: “high polyreactivity”; for “QVQLVESGGGLVQAGGSLRLSCAASGFTFRAYAMGWYRQAPGKERELVAAISWGGGSTYYADSVKGRFTISRDNAKNTVYLQMNSLKPEDTAVYYCATERRRYNTEYEYWGQGTQVTVSS”: “high polyreactivity”.
The value for “QVQLVESGGGLVQAGGSLRLSCAASGFTFRDYAMGWYRQAPGKEREFFADITFSGDNTRYADSVKGRFTISRDNAQNTVYLQMNSLKPEDTAVYYCNADRVVGPYDGYDYWGQGTQVTVSS” was “low polyreactivity”.
For “QVQLVESGGGLVQAGGSLRLSCAASGFTFRDYAMGWYRQAPGKERELVAAITRSGGRTYYADSVKGRFTISRDNAKNTVYLQMNSLKPEDTAVYYCNALDYLYGGIYLEEDYWGQGTQVTVSS”, the “polyreactivity (PSR sort gate)” value was “low polyreactivity”.
The value for “QVQLVESGGGLVQAGGSLRLSCAASGFTFRFYALGWYRQAPGKERELVAAISRRGGTTYYADSVKGRFTISRDNAKNTVYLQMNSLKPEDTAVYYCNKDWTYEHGYWGQGTQVTVSS” was “high polyreactivity”; that for “QVQLVESGGGLVQAGGSLRLSCAASGFTFRFYAMGWYRQAPAKERELVAAISRGGSTYYADSVKGRFTISRDNAKYTVYLQMNSLKPEDTAVFYCAKRGRYGDYWGQGTLVTVSS” was “high polyreactivity”; that for “QVQLVESGGGLVQAGGSLRLSCAASGFTFRIYAMGSYRQAPGKERELVAAISWAGGSTFYADSVKGRFTISRDNAKNTVYLQMNSLKPEDTAVYYCAADTAFHYDYWGQGTQVTVSS” was “low polyreactivity”.
Regarding “QVQLVESGGGLVQAGGSLRLSCAASGFTFRIYAMGWYRQAPGKERELVATISWSGTSTYYADSVKGRFTISRDYAKNTVFFQMNSLNPEDTAVYYCAKDGVSFYWLNKYYYWGQGTQVTVSS”, the “polyreactivity (PSR sort gate)” value was “low polyreactivity”.
Consider “QVQLVESGGGLVQAGGSLRLSCAASGFTFRKNVMGWYRQATGKERELVAVISSSGGSTYYADSVKGRFTISRDNAKNTVYLPMNRLKPEVTAVYYCNAGRYGSNLEYWGQGTQLTVSS”, for which the “polyreactivity (PSR sort gate)” value is “low polyreactivity”.
For “QVQLVESGGGLVQAGGSLRLSCAASGFTFRKYAMGLYRQAPGKERELVASITSGGSTYYADSVKGRFTISRDNAKNTVYLQMNSLKPEDNAVYYCNAVKATLASGRLRGAYYYWGQGNQVTVSS”, the “polyreactivity (PSR sort gate)” value is “high polyreactivity”.
With “QVQLVESGGGLVQAGGSLRLSCAASGFTFRKYAMGWYRPAPGKERELVAGITSGGSTNYADSVKGRFTISRDNAKNTVYLQMNSLKPEDTSVYYCNAARYYAYIGDYWGQGTQVTVSS”, the “polyreactivity (PSR sort gate)” value is listed as “high polyreactivity”.
As to “QVQLVESGGGLVQAGGSLRLSCAASGFTFRLYVMGWYIQAPGKERELVAAISSRGGSTYYADSLKGRFTISRDNAKNTVNLQMNSLKPEDTAVYYCAADRPRGRETVDYWGQGTQVTVSS”, the “polyreactivity (PSR sort gate)” value is reported as “high polyreactivity”.
With “QVQLVESGGGLVQAGGSLRLSCAASGFTFRNYAMGWYRQAPGKERELVAAISKSGGSTYYADSVKGRFTISRDNAKNTVYLQMNSLKPEDTAVYYCATDYLYVYGFEYYYWGQGTQVTVSS”, the “polyreactivity (PSR sort gate)” value is listed as “high polyreactivity”.
With “QVQLVESGGGLVQAGGSLRLSCAASGFTFRNYAMGWYRQAPGKERELVAAISQSGGITYYADTVKGRFTISRDNAKNTVYLQMYSLKPEDTAVYYCAAERFPRSSKGYFRTYDYWGQGTQVTVSS”, the “polyreactivity (PSR sort gate)” value is given as “high polyreactivity”.
Consider “QVQLVESGGGLVQAGGSLRLSCAASGFTFRQYAMGWYRQAPGKERELVAAISSGGSTYYADSVKGRFTISRDNAKNTVYLQMNSLKPEDTAVYYCNAVARYYVAYDMYWGQGTQVTVSS”, for which the “polyreactivity (PSR sort gate)” value is given as “high polyreactivity”.
With “QVQLVESGGGLVQAGGSLRLSCAASGFTFRRNAMGWYRQAPGKERELVAAITYNGGTTYYADSVKGRFTISRDNAKNTVYLLMNSLKPEDTAVYYCNAPYGRQGYDYWGQGTQVTVSS”, the “polyreactivity (PSR sort gate)” value is reported as “low polyreactivity”.
Consider “QVQLVESGGGLVQAGGSLRLSCAASGFTFRRYAMGGYRQAPGKERELVAAISANGGSTYYADSVKGRFTISRDNAKNTVYLQMNSLKPEDTAVYYCNARKYTQSIHYDYWGQGTQVTVSS”, for which the “polyreactivity (PSR sort gate)” value is given as “high polyreactivity”.
As to “QVQLVESGGGLVQAGGSLRLSCAASGFTFRRYAMGWYRQAPGKERELVASISWTGGSTHYADSVKGRFTISRDNAKNTVYLQMNSLKPEDSAVYYSNTVWYYLRSFNIDHYYDYWGQGTQVTVSS”, the “polyreactivity (PSR sort gate)” value is “high polyreactivity”.
In the case of “QVQLVESGGGLVQAGGSLRLSCAASGFTFRRYAMGWYRQAPGKEREMVAVINVSDGSTYYADSVKGRFTISRDNAKNTVYLQMNSLKPEDTAVYYCAAYLYNRPYQLPGYYDGYGYWGQGTQVTVSS”, the “polyreactivity (PSR sort gate)” value was “low polyreactivity”.
In the case of “QVQLVESGGGLVQAGGSLRLSCAASGFTFRRYAMGWYRQAPGQDRELVAAISYRGGTYYADSVKGRFTISRDNAKNTVYLQMNSLKPEDTAVYYCNARYRGKYSSYGYWGQGTQVTVSS”, the “polyreactivity (PSR sort gate)” value is on record as “high polyreactivity”.
In the case of “QVQLVESGGGLVQAGGSLRLSCAASGFTFRRYTMGWYRQAPGKERELVAAISGSGGSTYYADSVKGRFTISRDNAKNTVYLQMNSLKPEDTAVYYCNAPYLHYVIVFTDYSQRYDYWGQGTQVTVSS”, the “polyreactivity (PSR sort gate)” value is recorded as “high polyreactivity”.
The same measure for “QVQLVESGGGLVQAGGSLRLSCAASGFTFRSNMGWYRQAPGKEREFVAAITKSGGSTYYADSVKGRFTISRDNAKNTVYLQMNSLKPEDTAVYYCATKVDTYVFRYYYWGQGTQVTVSS”: “high polyreactivity”.
On to “QVQLVESGGGLVQAGGSLRLSCAASGFTFRSYAMGWYRQAPGKVRELVAAISLGGTSTYYADSVKGRFTISRDNAKNTVYLPMNSLKPEDTAVYYCAARSYGHYGYWGQGTQVTVSS”, for which the “polyreactivity (PSR sort gate)” value is “high polyreactivity”.
Consider “QVQLVESGGGLVQAGGSLRLSCAASGFTFRTNTMGWYRQAPGKERELVAAITYRGGRTYADSVKGRFTISRDNAKNTVYLQMNSLKPEDTAVYYCAARHYRGTAVDYWGQGTQVTVSS”, for which the “polyreactivity (PSR sort gate)” value is “high polyreactivity”.
On to “QVQLVESGGGLVQAGGSLRLSCAASGFTFRTNVMGWYRQAPGKERELVAVITRDGGSTYYADSVKGRFTISRDNAKNTVYLQMNSLKPEDTAVYYCNAAAFINFILYDYWGQGTQVTVSS”, for which the “polyreactivity (PSR sort gate)” value is “high polyreactivity”.
For “QVQLVESGGGLVQAGGSLRLSCAASGFTFRTYAMGWSRQAPGKERELVAAITVSGGTYYADSVKGRFTISRDNAKNTVYLQMNSLKPEDTAVYYCAAGYWNDFDWGQGTQVTVSS”, the “polyreactivity (PSR sort gate)” value is reported as “low polyreactivity”.
The same measure for “QVQLVESGGGLVQAGGSLRLSCAASGFTFRTYAMGWYRQAPGKERELVAAITGRGSNTYYADSVKGRFTISRDNAKNTVYLQMNSLKPEDTAVYYCNARYYDYRVALRYDYWGQGTQVTVSS”: “high polyreactivity”; for “QVQLVESGGGLVQAGGSLRLSCAASGFTFRTYAMGWYRQAPGKERELVSAITGSGGRTYYADSVKGRFTISRDYAKNTVYLQMNSLKPEDTAVYYCAADYVVPWAFWTFRFDYWGQGTQVTVSS”: “low polyreactivity”.
As to “QVQLVESGGGLVQAGGSLRLSCAASGFTFRVDAMGWYRQAPGKERELVAAISVRGDSTYYADSVKGRFTISRDNAKNTVYVQMNSLKPEDTAVYYSAAAVRTISRFTFYYWGQGTQVTVSS”, the “polyreactivity (PSR sort gate)” value is on record as “high polyreactivity”.
The same measure for “QVQLVESGGGLVQAGGSLRLSCAASGFTFRWYTMGWYRQAPGKERELFAAITGSGCTTYYADSVKGRFTISRDNAKNTVYLQMNSLKPEDTAVYYCAVVSGSLRTRYTYYYWGLGTQVTVSS”: “high polyreactivity”.
“QVQLVESGGGLVQAGGSLRLSCAASGFTFRWYTMGWYRQAPGKERELVASIRYGGGSTYYADSVKGRFTISRDNAKNTVYLQMNSLKPEDTAVYYCAAESAWTSQYDYWGVGTQVTVSS”: the “polyreactivity (PSR sort gate)” value was “high polyreactivity”.
On to “QVQLVESGGGLVQAGGSLRLSCAASGFTFRWYTMVWYRQAPGKERELVAAITGSGCTTYYADSVKGRFTISRDNAKNTVYLQMNSLKPEDTAVYYCAARTATSSPSWYEYWGQGTQVTVSS”, for which the “polyreactivity (PSR sort gate)” value is “high polyreactivity”.
Turning to “QVQLVESGGGLVQAGGSLRLSCAASGFTFRYYAMGWYRQAHGKERELVASITGGGRTYYADSVKGRFTISRDNAKNTVYLQMNSLKPEDTAVYYCATLLAYRLGSGYDSWGQGTQVTVSS”, the “polyreactivity (PSR sort gate)” value is listed as “high polyreactivity”.
